Source: patent US20200048328A1 (Bristol-Myers Squibb, published 2020)

Key:
rhesus serum albumin [1] = biological target: T1, rhesus serum albumin (rhesus, UniProt Q28522 17-600); assay: SPR, albumin immobilized
T1 construct: also called RhSA; Rh-SA
Procedure: (§1) To determine the kinetics of binding to human, rhesus, and mouse serum albumin, as well as whether binding was retained at both physiological and endosomal pHs, the respective serum albumins were immobilized on a Biacore CMS chip to a surface density of ˜1200 RU using standard NHS/EDC coupling. […] Kinetic measurements were carried out using a 3 min association and 6-10 min dissociation phase. Kinetic traces of reference-subtracted sensorgrams were fit to a 1:1 binding model using the Biaevaluation software.
(§2) In addition, binding to albumin was carried out under various pH conditions ranging from pH 5.5 to pH 7.4.

mouse serum albumin [2] = biological target: T2, mouse serum albumin (mouse, UniProt P07724 25-608); assay: SPR, albumin immobilized
T2 construct: also called MSA; MuSA
Procedure: as §1, §2

cynomolgus serum albumin = biological target: T3, cynomolgus serum albumin (cynomolgus, UniProt A2V9Z4 25-608); assay: SPR, albumin immobilized;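 note: biacore CM5 surface plasmon resonance with serum albumin coupled to the chip, 3 min association then 6-10 min dissociation, rates from a 1:1 model fit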
T3 construct: also called cynoSA; CySA
T3 sequence (A2V9Z4 25-608 limits assumed): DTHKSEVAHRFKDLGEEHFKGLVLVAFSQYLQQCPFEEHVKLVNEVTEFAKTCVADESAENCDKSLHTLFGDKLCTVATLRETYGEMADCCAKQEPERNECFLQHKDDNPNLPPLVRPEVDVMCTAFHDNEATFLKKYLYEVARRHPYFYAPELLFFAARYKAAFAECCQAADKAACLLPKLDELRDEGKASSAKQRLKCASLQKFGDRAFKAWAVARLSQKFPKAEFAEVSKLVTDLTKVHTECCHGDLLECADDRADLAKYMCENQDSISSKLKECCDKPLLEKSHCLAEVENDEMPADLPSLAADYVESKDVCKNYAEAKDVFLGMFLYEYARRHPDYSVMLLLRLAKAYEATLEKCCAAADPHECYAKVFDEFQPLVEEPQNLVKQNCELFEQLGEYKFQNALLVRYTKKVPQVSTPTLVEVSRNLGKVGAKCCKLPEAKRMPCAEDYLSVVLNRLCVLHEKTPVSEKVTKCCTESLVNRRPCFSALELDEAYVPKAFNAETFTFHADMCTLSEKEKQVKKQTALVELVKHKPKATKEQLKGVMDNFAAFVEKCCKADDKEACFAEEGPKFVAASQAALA
Procedure: as §1, §2

human serum albumin [3] = biological target: T4, human serum albumin (human, UniProt P02768 25-609); assay: SPR, albumin immobilized
T4 construct: immobilized on chips or coated on plates elsewhere; also called HSA; HuSA
Procedure: as §1, §2

rhesus serum albumin [4] = biological target: T1, rhesus serum albumin; assay: SPR, albumin immobilized, acetate pH 7.4
mouse serum albumin [5] = biological target: T2, mouse serum albumin; assay: SPR, albumin immobilized, acetate pH 7.4
human serum albumin [6] = biological target: T4, human serum albumin; assay: SPR, albumin immobilized, acetate pH 7.4
rhesus serum albumin [7] = biological target: T1, rhesus serum albumin; assay: SPR, albumin immobilized, HBSP pH 7.4
mouse serum albumin [8] = biological target: T2, mouse serum albumin; assay: SPR, albumin immobilized, HBSP pH 7.4
human serum albumin [9] = biological target: T4, human serum albumin; assay: SPR, albumin immobilized, HBSP pH 7.4
rhesus serum albumin [10] = biological target: T1, rhesus serum albumin; assay: direct binding ELISA, albumin coated
Procedure: (§3) Cross-species albumin binding was determined using the ELISA method described above.

mouse serum albumin [11] = biological target: T2, mouse serum albumin; assay: direct binding ELISA, albumin coated
Procedure: as §3

human serum albumin [12] = biological target: T4, human serum albumin; assay: direct binding ELISA, albumin coated
Procedure: as §3

rhesus serum albumin [13] = biological target: T1, rhesus serum albumin; assay: SPR, albumin immobilized, acetate pH 7.4; remark: listed apart in the source
mouse serum albumin [14] = biological target: T2, mouse serum albumin; assay: SPR, albumin immobilized, acetate pH 7.4; remark: listed apart in the source
human serum albumin [15] = biological target: T4, human serum albumin; assay: SPR, albumin immobilized, acetate pH 7.4; remark: listed apart in the source
rhesus serum albumin [16] = biological target: T1, rhesus serum albumin; assay: SPR, albumin immobilized, HBSP pH 7.4; remark: listed apart in the source
mouse serum albumin [17] = biological target: T2, mouse serum albumin; assay: SPR, albumin immobilized, HBSP pH 7.4; remark: listed apart in the source
human serum albumin [18] = biological target: T4, human serum albumin; assay: SPR, albumin immobilized, HBSP pH 7.4; remark: listed apart in the source
domain III of HSA = biological target: T5, domain III of HSA (human, UniProt P02768 405-609, limits assumed); assay: SPR on HSA domains
T5 construct: domain: III; also called HuSA domainIII

domain I of HSA = biological target: T6, domain I of HSA (human, UniProt P02768 25-221, limits assumed); assay: SPR on HSA domains
T6 construct: domain: I; also called HSA domain I

rhesus serum albumin [19] = biological target: T1, rhesus serum albumin; assay: SPR, albumin immobilized, acetate pH 5.5
mouse serum albumin [20] = biological target: T2, mouse serum albumin; assay: SPR, albumin immobilized, acetate pH 5.5
human serum albumin [21] = biological target: T4, human serum albumin; assay: SPR, albumin immobilized, acetate pH 5.5
human serum albumin [22] = biological target: T4, human serum albumin; assay: direct binding ELISA on coated HSA, mono-Adnectin (column HSA EC50 (nM))
mouse serum albumin [23] = biological target: T2, mouse serum albumin; assay: SPR, albumin immobilized, acetate pH 7.4; acetate pH 7.4, MuSA
rhesus serum albumin [24] = biological target: T1, rhesus serum albumin; assay: SPR, albumin immobilized; remark: listed apart in the source
Procedure: as §1

mouse serum albumin [25] = biological target: T2, mouse serum albumin; assay: SPR, albumin immobilized; remark: listed apart in the source
Procedure: as §1

human serum albumin [26] = biological target: T4, human serum albumin; assay: SPR, albumin immobilized; remark: listed apart in the source
Procedure: as §1

T2 sequence (P07724 25-608 limits assumed): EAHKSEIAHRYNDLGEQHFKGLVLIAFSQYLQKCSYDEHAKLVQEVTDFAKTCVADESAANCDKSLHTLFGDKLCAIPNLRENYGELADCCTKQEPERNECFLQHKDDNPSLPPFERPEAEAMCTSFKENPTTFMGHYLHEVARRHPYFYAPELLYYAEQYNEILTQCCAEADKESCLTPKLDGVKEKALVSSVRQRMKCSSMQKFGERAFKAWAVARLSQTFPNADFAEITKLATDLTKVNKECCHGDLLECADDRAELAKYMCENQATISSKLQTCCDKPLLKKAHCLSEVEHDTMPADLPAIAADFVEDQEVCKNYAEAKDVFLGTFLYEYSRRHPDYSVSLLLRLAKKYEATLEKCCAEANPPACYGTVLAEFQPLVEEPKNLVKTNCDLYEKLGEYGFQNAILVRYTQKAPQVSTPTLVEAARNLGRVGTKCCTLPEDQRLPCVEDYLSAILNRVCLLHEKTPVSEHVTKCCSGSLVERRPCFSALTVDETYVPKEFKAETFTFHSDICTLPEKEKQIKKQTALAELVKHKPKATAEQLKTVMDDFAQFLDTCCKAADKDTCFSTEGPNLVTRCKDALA
T1 sequence (Q28522 17-600 limits assumed): as the sequence (A2V9Z4 25-608 limits assumed) above

B1: PKE2 Adnectin 2629_E06 (designed binder)
chain: MGVSDVPRDLEVVAATPTSLLISWDAPAVTVRYYRITYGREVQKYSDLGPLYIYQEFTVPGSKSTATISGLKPGVDYTITVYAVTGSGESPASSKPISINYRTEIDKPSQHHHHHH
notes: 10Fn3 domain with modified CD loop; the entry includes the His6 tail; also called ADX_2629_E06
Q: How did the Kd (rhesus serum albumin [1]) turn out when B1 was run?
A: 0.0034 µM

Q: What about the koff (rhesus serum albumin [1]) of the same binder?
A: 0.00024 s⁻¹

Q: What about the kon (rhesus serum albumin [1]) of the same binder?
A: 73900 M⁻¹ s⁻¹

Q: And the Kd (mouse serum albumin [2])?
A: 0.0024 µM

Q: What about the koff (mouse serum albumin [2]) of the same binder?
A: 0.000531 s⁻¹

Q: What about the kon (mouse serum albumin [2]) of the same binder?
A: 219000 M⁻¹ s⁻¹

Q: And the Kd (cynomolgus serum albumin)?
A: 0.0032 µM

Q: And the koff (cynomolgus serum albumin)?
A: 0.000229 s⁻¹

Q: What about the kon (cynomolgus serum albumin) of the same binder?
A: 73700 M⁻¹ s⁻¹

Q: What about the Kd (human serum albumin [3]) of the same binder?
A: 0.0032 µM

Q: And the koff (human serum albumin [3])?
A: 0.000185 s⁻¹

Q: What about the kon (human serum albumin [3]) of the same binder?
A: 61000 M⁻¹ s⁻¹

Q: And the Kd (rhesus serum albumin [4])?
A: 0.0118 µM

Q: What about the koff (rhesus serum albumin [4]) of the same binder?
A: 0.000328 s⁻¹

Q: And the kon (rhesus serum albumin [4])?
A: 27900 M⁻¹ s⁻¹

Q: What about the Kd (mouse serum albumin [5]) of the same binder?
A: 0.00348 µM

Q: What about the koff (mouse serum albumin [5]) of the same binder?
A: 0.000268 s⁻¹

Q: And the kon (mouse serum albumin [5])?
A: 76800 M⁻¹ s⁻¹

Q: And the Kd (human serum albumin [6])?
A: 0.00974 µM

Q: What about the koff (human serum albumin [6]) of the same binder?
A: 0.000272 s⁻¹

Q: What about the kon (human serum albumin [6]) of the same binder?
A: 28000 M⁻¹ s⁻¹

Q: What about the Kd (rhesus serum albumin [7]) of the same binder?
A: 0.0114 µM

Q: What about the koff (rhesus serum albumin [7]) of the same binder?
A: 0.000267 s⁻¹

Q: And the kon (rhesus serum albumin [7])?
A: 23500 M⁻¹ s⁻¹

Q: What about the Kd (mouse serum albumin [8]) of the same binder?
A: 0.0033 µM

Q: What about the koff (mouse serum albumin [8]) of the same binder?
A: 0.000262 s⁻¹

Q: And the kon (mouse serum albumin [8])?
A: 79600 M⁻¹ s⁻¹

Q: And the Kd (human serum albumin [9])?
A: 0.0107 µM

Q: What about the koff (human serum albumin [9]) of the same binder?
A: 0.000192 s⁻¹

Q: What about the kon (human serum albumin [9]) of the same binder?
A: 17900 M⁻¹ s⁻¹

Q: And the EC50 (rhesus serum albumin [10])?
A: 0.0105 µM

Q: What about the EC50 (mouse serum albumin [11]) of the same binder?
A: 0.0028 µM

Q: What about the EC50 (human serum albumin [12]) of the same binder?
A: 0.0145 µM

Q: What about the Kd (rhesus serum albumin [13]) of the same binder?
A: 0.0104 µM

Q: And the koff (rhesus serum albumin [13])?
A: 0.000297 s⁻¹

Q: What about the kon (rhesus serum albumin [13]) of the same binder?
A: 28600 M⁻¹ s⁻¹

Q: And the Kd (mouse serum albumin [14])?
A: 0.0112 µM

Q: And the koff (mouse serum albumin [14])?
A: 0.000503 s⁻¹

Q: What about the Kd (human serum albumin [15]) of the same binder?
A: 0.0096 µM

Q: And the koff (human serum albumin [15])?
A: 0.000243 s⁻¹

Q: What about the kon (human serum albumin [15]) of the same binder?
A: 25400 M⁻¹ s⁻¹

Q: What about the Kd (rhesus serum albumin [16]) of the same binder?
A: 0.0127 µM

Q: And the koff (rhesus serum albumin [16])?
A: 0.000276 s⁻¹

Q: What about the kon (rhesus serum albumin [16]) of the same binder?
A: 21800 M⁻¹ s⁻¹

Q: And the Kd (mouse serum albumin [17])?
A: 0.00343 µM

Q: What about the koff (mouse serum albumin [17]) of the same binder?
A: 0.000272 s⁻¹

Q: And the kon (mouse serum albumin [17])?
A: 79100 M⁻¹ s⁻¹

Q: And the Kd (human serum albumin [18])?
A: 0.0106 µM

Q: And the koff (human serum albumin [18])?
A: 0.000219 s⁻¹

Q: And the kon (human serum albumin [18])?
A: 20700 M⁻¹ s⁻¹

Q: Does B1 bind (domain III of HSA)?
A: no binding

Q: Does B1 bind (domain I of HSA)?
A: no binding

Q: And the Kd (rhesus serum albumin [19])?
A: 0.0112 µM

Q: What about the koff (rhesus serum albumin [19]) of the same binder?
A: 0.000503 s⁻¹

Q: And the kon (rhesus serum albumin [19])?
A: 44900 M⁻¹ s⁻¹

Q: What about the Kd (mouse serum albumin [20]) of the same binder?
A: 0.0146 µM

Q: What about the koff (mouse serum albumin [20]) of the same binder?
A: 0.00113 s⁻¹

Q: What about the kon (mouse serum albumin [20]) of the same binder?
A: 77000 M⁻¹ s⁻¹

Q: What about the Kd (human serum albumin [21]) of the same binder?
A: 0.0041 µM

Q: What about the koff (human serum albumin [21]) of the same binder?
A: 0.000287 s⁻¹

Q: What about the kon (human serum albumin [21]) of the same binder?
A: 70700 M⁻¹ s⁻¹

Q: And the EC50 (human serum albumin [22])?
A: 0.02 µM

Q: What about the kon (mouse serum albumin [23]) of the same binder?
A: ~76800 M⁻¹ s⁻¹

Q: And the Kd (rhesus serum albumin [24])?
A: 0.0145 µM

Q: And the koff (rhesus serum albumin [24])?
A: 0.000283 s⁻¹

Q: And the kon (rhesus serum albumin [24])?
A: 19500 M⁻¹ s⁻¹

Q: What about the Kd (mouse serum albumin [25]) of the same binder?
A: 0.0036 µM

Q: What about the koff (mouse serum albumin [25]) of the same binder?
A: 0.000242 s⁻¹

Q: What about the kon (mouse serum albumin [25]) of the same binder?
A: 68400 M⁻¹ s⁻¹

Q: And the Kd (human serum albumin [26])?
A: 0.0123 µM

Q: What about the koff (human serum albumin [26]) of the same binder?
A: 0.000213 s⁻¹

Q: What about the kon (human serum albumin [26]) of the same binder?
A: 17400 M⁻¹ s⁻¹
